For one assay, the target named is NRG binding to HER3 (Homo sapiens, UniProt P21860). Particulars: increasing mAb concentrations, 45 min at 4° C., then d2-labeled NRG. On the procedure:
(FIG. 9A) The indicated mAbs were checked for their capacity to compete with fluorescent dye labeled NRG. […] After washes, the labeled-NRG was added and incubated for 30 min at 4° C. Fluorescence intensity at 670 nm was determined following 3 final washes. (FIG. 9B) The ability of the mAbs to avoid NRG-induced phosphorylation of HER3, AKT and ERK, was studied with N87 cells. After 20 min treatment with the indicated mAbs (10 μg/ml) at 37° C., NRG (20 ng/ml) was added to the cells for 10 min. The cells were then lysed, and equal quantities of protein lysates were run on 9% bisacrylamide gel before immunoblotting with the indicated primary antibodies. (FIG. 9C) The capacity of mAb NG33 to avoid NRG-induced migration was checked with OVCAR-5 cells and the quantification reported in a histogram. […] Signals of triplicates were quantified. **** […] (ANOVA and post hoc tests).
Agent labeling was performed by Cisbio. […] Following 1 h incubation, the plate was washed 4 times with KREBS buffer (146 mM NaCl, 4 mM KCl, 0.5 mM MgCl2, 1 mM CaCl2, 10 mM Hepes, 1 gr/L glucose, and 1 mg/mL albumin), and the fluorescent intensity (excitation: 488 nm, emission: 610 nm) was measured using a fluorescence microplate reader. […] Finally, following two washes with KREBS buffer, the fluorescence intensity was measured at 670 nm (excitation: 620 nm). […]

For the next assay, the system named is BxPC3 cells. The assay can be described thus: MTT assay on BxPC3 cells in culture. Particulars: 3 days. The format is cell-based, human. The protocol:
(§1) FIGS. 15A-F show the effects of a mixture of two anti HER3 mAbs, in vivo on BxPC3 cell xenografts and in vitro. (FIGS. 15A-C) CD1-Nude mice were grafted subcutaneously with 5×10^6 BxPC3 cells. Once tumors became palpable (after 13 days), the mice were randomized into group of 8 mice and treated every 3 days for 5 weeks. The control group (CTRL) was injected intra-peritoneally (IP) with 200 μl PBS. The other groups were treated with mAb alone or in combination at a final concentration of 0.2 mg/0.2 ml of PBS per mouse. The mice were weighted once a week and the tumors measured twice a week. An average tumor size of 7-8 mice (+/−SEM) is shown. (FIGS. 15D-F) Proliferation assays using MTT were performed on BxPC-3. 5,000 cells per well were plated the day before and treated for 72 h with the indicated mAb treatment. Decreasing concentrations of the indicated mAb (alone or in combination) were used in medium supplemented with 1% serum and NRG (10 ng/ml).
To determine if the combination of NG33 mAb with another anti-HER3 mAb is more efficient than using NG33 alone, the combination of two mAbs, NG33 and XC252, was tested on several tumor cell lines, which were grafted subcutaneously (gastric: N87, lung: A549, pancreatic: BxPC3, ovarian: OVCAR-5, and head and neck: CAL-27, FIG. 14). This pilot was performed with 3 mice per group. Mice were injected twice a week with the mAb combination or with PBS. The best responder of these in vivo models for solid tumor growth was the BxPC3 xenograft model. […] This experiment was performed on 7 to 8 mice per group. The mice were treated every 3 days with PBS, each mAb alone or a mAb combination, for 5 weeks (0.2 mg/injection). […] In order to reinforce the in vivo data, the cytotoxicity of each mAb alone or in combination with NG33 was tested on BxPC3 cells in culture (FIGS. 15D, 15E and 15F). Decreasing concentrations of mAb were used and a MTT assay was performed following 3 days of treatment. […] On the contrary, XC252 used alone has a […] cytotoxic impact on BxPC3 proliferation leading to 60% inhibition of cell survival at high concentration.
For orientation: Tetrazolium dyes change colour on reduction, which living cells bring about.

In the next assay the test system is BxPC3 xenografts. The assay can be described thus: BxPC3 cell xenografts in CD1-Nude mice. The format is in vivo. Particulars: 0.2 mg/injection IP every 3 days for 5 weeks, 7 to 8 mice per group. The protocol: as §1
All animal studies were approved by the Weizmann Institute's Review Board (IRB). Tumor bearing CD1/nude mice were randomized in groups of five-ten mice and injected subcutaneously in the right flank with cancer cells (3-5×10^6 per mouse depending on the cell line). mAbs were injected intraperitoneally at a total dose of 200 μg per mouse per injection, twice a week, for 5 weeks or until tumors reached the size of 1,500 mm^3. In experiments evaluating the effect of the TKI AZD-9291, Vehicle (Vehicle formulation: HPMC 0.5% (sigma Cat#56340), Tween80 0.1% (Sigma Cat #P8074 in water), Erlotinib at a dose of 50 mg/kg per injection, or AZD9291 at a dose of 1 or 5 mg/kg per injection were injected daily intraperitoneally. In one experiment (FIG. 16), mice were treated daily with Erlotinib at a dose of 50 mg/kg per injection until tumors reached a size of 800 mm^3 and only then were treated as indicated. Tumor volume and body weight were evaluated twice and once per week, respectively. Mice were euthanized when tumor size reached 1,500 mm^3. […] Survival of the tumor bearing mice was recorded and depicted by Kaplan-Meier analysis. […]

Chain of NRG binding to HER3 (P21860 20-1342): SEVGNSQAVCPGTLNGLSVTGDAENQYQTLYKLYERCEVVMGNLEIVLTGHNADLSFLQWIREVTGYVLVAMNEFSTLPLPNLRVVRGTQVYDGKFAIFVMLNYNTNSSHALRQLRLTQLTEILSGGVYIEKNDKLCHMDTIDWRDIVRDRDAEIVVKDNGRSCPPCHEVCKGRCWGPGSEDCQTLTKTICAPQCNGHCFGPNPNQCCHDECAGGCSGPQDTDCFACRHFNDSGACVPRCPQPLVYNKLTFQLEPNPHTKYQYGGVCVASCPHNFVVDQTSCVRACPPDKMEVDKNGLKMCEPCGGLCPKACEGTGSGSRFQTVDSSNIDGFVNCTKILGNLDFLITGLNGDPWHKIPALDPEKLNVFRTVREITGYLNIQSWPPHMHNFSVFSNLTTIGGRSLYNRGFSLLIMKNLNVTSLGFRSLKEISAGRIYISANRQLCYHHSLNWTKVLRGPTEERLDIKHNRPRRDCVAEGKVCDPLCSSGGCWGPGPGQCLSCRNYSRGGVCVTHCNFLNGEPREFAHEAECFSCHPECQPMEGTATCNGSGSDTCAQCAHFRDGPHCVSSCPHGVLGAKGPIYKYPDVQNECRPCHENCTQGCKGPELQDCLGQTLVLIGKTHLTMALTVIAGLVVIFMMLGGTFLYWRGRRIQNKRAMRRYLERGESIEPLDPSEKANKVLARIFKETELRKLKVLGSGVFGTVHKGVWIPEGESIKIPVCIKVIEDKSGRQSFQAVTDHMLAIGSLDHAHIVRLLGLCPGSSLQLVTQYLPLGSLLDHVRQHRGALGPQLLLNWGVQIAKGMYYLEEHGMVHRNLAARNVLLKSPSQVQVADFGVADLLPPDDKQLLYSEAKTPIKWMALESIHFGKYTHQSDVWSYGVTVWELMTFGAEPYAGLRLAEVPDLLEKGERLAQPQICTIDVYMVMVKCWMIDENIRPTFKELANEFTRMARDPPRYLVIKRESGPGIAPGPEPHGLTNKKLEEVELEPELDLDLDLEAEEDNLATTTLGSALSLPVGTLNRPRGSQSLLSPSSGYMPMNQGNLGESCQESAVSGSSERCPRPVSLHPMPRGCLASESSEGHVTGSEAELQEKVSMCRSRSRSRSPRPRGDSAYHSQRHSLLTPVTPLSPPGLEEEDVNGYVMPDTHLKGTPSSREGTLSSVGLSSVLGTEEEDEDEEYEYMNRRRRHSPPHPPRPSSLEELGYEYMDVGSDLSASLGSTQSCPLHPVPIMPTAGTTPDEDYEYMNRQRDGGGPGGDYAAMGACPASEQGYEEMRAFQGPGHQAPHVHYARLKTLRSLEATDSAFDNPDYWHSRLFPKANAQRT

B1: NG83: anti-HER3 mAb; light chain CDRs SEQ ID NOs: 7-9, heavy chain CDRs 10-12 (antibody, V domains shown)
VH: QIQLVQSGPELKKRGETVKISCKASGYTFTNYGMNWVRQAPGKGLKCMGWINTYAGEPTYADDFKGRFAFSLDSSASTAYLQINNLKNEDMATYFCARGGITGAMDYWGQGTSVTVSS
VL: DVVMTQKTSSLSTSLGDRVTISCRASQDIRNYLNWYQQKPDGTVKLLIYYTSRLHSGVPSRFSGSGSGTDYSLTISDLEQEDIATYFCQQGNTLPWTFGGGTKLAIK
modifications: VH chain of NG83 polypeptide; VL chain of NG83 polypeptide
On to B1, for which the “effect on NRG binding to HER3” value with NRG binding to HER3 was “did not disturb NRG binding”. In addition, the “effect on BxPC3 proliferation/survival (in words)” value in the assay with BxPC3 cells is listed as “did not interfere with cell proliferation”. The “effect on BxPC3 xenograft tumor growth” value in the assay with BxPC3 xenografts is given as “no statistically significant ability to decrease tumor growth”.

B2: XC252: anti-HER3 mAb generated as described in Chen X, et al. (1996); heavy and light chain SEQ ID NOs: 49 and 53 (antibody, V domains shown)
VH: EVQLQQSGAELVRPGVSVKISCKGSGYTFTDYAMHWVKQSHAKSLEWIGVISTYYGDPRDNQKFKGKATMTVDKSSSTAYMELARLTSEDSAIYYCARGDYDWYAIDYWGQGTSVTVSS
VL: DVVMTQTPLSLPVSLGDQASISCRSSQSIVHSDGNTYLEWYLQKPGQSPKLLIYKVSNRFSGVPDRFSGSGSGTDFTLKISRVEAEDLGVYYCFQGSHVPPTFGGGTKLEIK
modifications: VH chain of XC252 polypeptide; VL chain of XC252 polypeptide
Regarding B2, the “effect on NRG binding to HER3” value with NRG binding to HER3 is reported as “slightly enhanced NRG binding”. For the same molecule, the “inhibition of cell survival” value in the assay with BxPC3 cells (high concentration, 1% serum, NRG 10 ng/ml) was found to be 60%. Moreover, in the assay on BxPC3 xenografts, the “effect on BxPC3 xenograft tumor growth” value is on record as “no statistically significant ability to decrease tumor growth”.

The record behind these values is patent US10526416B2, “Anti-HER3 antibodies and uses of same” (Yeda Research and Development Co. Ltd., priority 2014, dated 2020).
